# Data from patent publication US20210355205A1.
# Assays:
# [1] = target: Cynomolgus IL-5 (cynomolgus monkey); experiment: cell-based or functional assay
# [2] = target: recombinant human IL-5 (human) (UniProt P05113); experiment: cell-based or functional assay
substance,measurement,setting,value
Mepolizumab (antibody),"Mean (pM): mean IC50, TF-1.6G4 cell line proliferation assay",[1],584 pM
same,"Mean (pM): mean IC50, TF-1.6G4 cell line proliferation assay",[2],534 pM
